Source: the RNAGym collection of RNA variant scans (doi:10.1073/pnas.2313332121)
Fewer inactive variants are shown than the library holds.

B1: TPR 5TU (parent)
chain: GGAUCUUCUCGAUCUAACAAAAAAGACAAAUCUGCCACAAAGCUUGAGAGCAUCUUCGGAUGCAGAGGCGGCAGCCUUCGGUGGCGCGAUAGCGCCAACGUUCUCAACUAUGACACGCAAAACGCGUGCUCCGUUGAAUGGAGUUUAUCAUG

Variants of: B1
Test: polymerase ribozyme fitness, log enrichment relative to wild type (log ratio); higher = more active; in vitro selection for triplet polymerase activity
In short: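 Frozen incubation at −7 °C formed the core of a single, triplicate in vitro selection round applied to PCR-built, transcribed mutant libraries of each subunit of a heterodimeric triplet polymerase ribozyme. Extended constructs were gel-excised, captured with streptavidin beads and amplified by RT-PCR, and input and output libraries were Illumina-sequenced with a filter of ≥10 input reads and ≥1 read per output. Fitness is the logarithm of genotype enrichment relative to wild-type enrichment, with inverse-variance-weighted replicate averaging, and the logarithm is base 2.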

Going from GGAUCUUCUCGAUCUAACAAAAAAGACAAAUCUGCCACAAAGCUUGAGAGCAUCAUCUGAUGCAGAGGCGGCAGCCUUCGGUCGCGCGAUAGCGCCAACGUUCUCAACUAUGACACGCAAAACCCGUGCUCGGUUGAAUGGAGUUUAUCAUG to GGAUCUUCUCGAUCUAACAAAAAAGACAAAUCUGCCACAAAGCUUGAGAGCAUCAUCGGAUGCAGAGGCGGCAGCCUUCGGUGGCGCGAUAGUGCCAACGUUCUCAACUAUGACACGCAAAACGCGUGCUCCGUUGAAUGGAGUUUAUCAUG, the “polymerase ribozyme fitness (log ratio)” value rises from ≤ -4.2 to -1.68.

Compared with GGAUCUUCUCGAUCUAACAAAAAAGACAAAUCUGCCACAAAGCUUGAGAGCAUCAUCGGAUGCAGAGGCGGCAGCCUUCGGUGGUGCGAUAGCGCCAACGUUCUCAACUAUGACACGCAAAGCGCGUGCUCCGUUGAAUGGGGUGUAUCAUG, GGAUCUUCUCGAUCUAACAAAAAAGACAAAUCUGCCACAAAGCUUGAGAGCAUCAUCAGAUGCAGAGGCGGCAGCCUUCGGUGGAGCGAUAGCGCCAACGUUCUCAACUAUGACACGCAAAACGCGUGCUUCGUUGAAUGGAGUUUAUCAUG is higher in “polymerase ribozyme fitness (log ratio)” value: -2.39 for the first, 0.931 for the second.

Going from GGAUCUUCUCGAUCUAACAAAAAAGACAAAUCUGCCACAAAGCUUGAGAGCAUCAUCGGAUGCAGAGGCGGCAGCCUUCGGUGGCGCGAUAGCGCCAACGUUCUCAACUAUGACAGGCAAAACGCGUGCUCCGUUGAAUGGAGUUUAUCAUG to GGAUCUUCUCGAUCUAACAAAAAAGACAAAUCUGCCACAAAGCUUGAGAGCAUCAUCUGAUGCAGAGGCGGCAGCCUUCGGUGACGCGAUAGCGCCAACGUUUUCAACUAUGACACGCACAACGCGUGCUCCGUUGAAUGGAGUUUAUCAUG, the “polymerase ribozyme fitness (log ratio)” value falls from 0.374 to -0.0961.

Compared with GGAUCUUCUCGAUCUAACAAAAAAGACAAAUCUGCCACAAAGCUUGAGAGCAUCAUCGGAUGCAGAGGCGGCAGCCUUCGGUGGAGCGAUAGCGCCAACGUUCUCAACUAUGACACGCUAAACGCGUGCUCCGAUGAAUGGCGUUUAUCAUG, GGAUCUUCUCGAUCUAACAAAAAAGACAAAUCUGCCACAAAGCUUGAGAGCAUCAUCGGAUGCAGAGGCGGCAGCCUUCGGUGGCGUGAUAGCGCCAACGUUCUCAACUAUGACACGCAAAACGCGUGCUCCGUUGAAUGGAGUUUAUCAUG is higher in “polymerase ribozyme fitness (log ratio)” value: ≤ -4.2 for the first, -1.1 for the second.

Going from GGAUCUUCUCGAUCUAACAAAAAAGACAAAUCUGCCACAAAGCUUGAGAGCAUCAUCGGAUGCAGAGGCGGCAGCCUUCGGUGGCGAGAUAGCGCCAACGUUCUCAACUAUGACACGCAAAACGCGUGCUCCGUUGAAUGGAGUUUAUCAUG to GGAUCUUCUCGAUCUAACAAAAAAGACAAAUCUGCCACAAAGCUUGAGAGCAUCAUCGGAUGCAGAGGCGGCAGCCUUCGGUGGCGCGAUAGCGCCAACGUUCUCAACUAUGACACGCAAAACGAGUGCUCCGUUGAAUGGAGUUUAUCAUG, the “polymerase ribozyme fitness (log ratio)” value rises from ≤ -4.2 to -0.912.

Compared with GGAUCUUCUCGAUCUAACAAAAAAGACAAAUCUGCCACAAAGCUUGAGAGCAUCAUCGGAUGCAGAGGCGGCAGCCUUGGAUGGCGCGAUAGCGCCAACGUUCUCAACUAUGACACGCAAAACGCGUGCUCCGUUGAAUGGAGUUUAUCAUG, GGAUCUUCUCGAUCUAACAAAAAAGACAAAUCUGCCACAAAGCUUGAGAGCAUCAUCGGAUGCAGAGGCGGCAGCCUUCGGUGGCGCGAUAGCGCCAACGUUUUCAACUAUGACACGCAAAACGCGUGCUCCGUUGAAUGGAGUUUAUCAUG is higher in “polymerase ribozyme fitness (log ratio)” value: -4.18 for the first, -0.726 for the second.

First: GGAUCUUCUCGAUCUAACAAAAAAGACAAAUCUGCCACAAAGCUUGAGAGCAUCAUCGGAUGCAGAGGCGGCAGCCUUCGGUGGCGCGAUAGCGCCAACGUUGUCAACUAUGACACGCAAAACGCGUGCUCCGUUGAAUGGAGUUUAUCAUG
Second: GGAUCUUCUCGAUCUAACAAAAAAGACAAAUCUGCCACAAAGCUUGAGAGCAUCAUCGGAUGCAGAGGCGGCAGCCUUCGGUGGCGUGAUAGCGCCAACGUUCUCAACUAUGACACGCAAAACGCGUGCUCCGUUGAAUGGAGUUAAUCAUG
The “polymerase ribozyme fitness (log ratio)” value of the first is lower: -2.22 for the first, -1.36 for the second.

Going from GGAUCUUCUCGAUCUAACAAAAAAGACAAAUCUGCCACAAAGCUUGAGAGCAUCAUCGAAUGCAGAGGCGGCAGCCUUCGGUGGCGCGAUAGCGCCAACGUUCUCAACUAUGACACGCAAAACGCGUGCUCCGUUGAAUGGAGUUUAGCAUG to GGAUCUUCUCGAUCUAACAAAAAAGACAAAUCUGCCACAAAGCUUGAGAGCAUCAUCGGAUGCAGAGGCGGCAGCCUUCGGUGGCGCGAUAGCGCCAACGUUCUCAAGUAUGACACGCAAAACGCGUGCUCCGUUGAAUGGAGUUUAUCAUG, the “polymerase ribozyme fitness (log ratio)” value falls from -2.52 to ≤ -4.2.

Going from GGAUCUUCUCGAUCUAACAAAAAAGACAAAUCUGCCACAAAGCUUGAGAGCAUCAUCGGAUGCAGAGGCGGCAGCCUUCGGUGGCGCGAUAGUGCCAACGUUCUCAACUAUGACUCGCAAAACGCGUGCUCCGUUGAAUGGAUUUUAUCAUG to GGAUCUUCUCGAUCUAACAAAAAAGACAAAUCUGCCACAAAGCUUGAGAGCAUCAUCGGAUGCAGAGGCGGCAGCCUUCGGUGGCGCGAUAGCGCAAACGUUCUCAACUAUGACACGCAAAACGCGUGCUCCGUUCAAUGGAGUUUAUCAUG, the “polymerase ribozyme fitness (log ratio)” value rises from ≤ -4.2 to -3.78.

For GGAUCUUCUCGAUCUAACAAAAAAGACAAAUCUGCCACAAAGCUUGAGAGCAUCAUCGGAUGCAGAGGCGGCAGCCUUCGGUGGCGCGAUAGCGCCAACGUUCUCAACUAUGACACGCAAAACGCGUGCUCAGUUGGAUGGAAUUGAUCAUG, the “polymerase ribozyme fitness (log ratio)” value was ≤ -4.2.
